According to article PMC3355127:

Key:
[1] = SDS/2% agarose multimer gel of plasma, densitometry; conditions: glycan lost; control: WT mVwf cDNA
[2] = plasma VWF:Ag ELISA after hydrodynamic injection in VWF-/- mice; conditions: glycan lost; control: WT mVwf cDNA
[3] = whole-blood perfusion over collagen, 2500 s-1, platelet coverage; conditions: glycan lost; control: blood of WT-VWF expressing mice
[4] = VWF antigen ELISA, COS-7 supernatant; conditions: glycan lost; control: WT mVwf
[5] = VWF antigen ELISA, COS-7 lysate (intracellular retention); conditions: glycan lost; control: WT mVwf
[6] = in vivo NHS-biotin labelling, residual biotinylated VWF in plasma; conditions: glycan lost; control: WT-mVWF

Substance	oligomerisation [1]	expression_or_secretion, other: VWF:Ag, % of normal murine plasma [2]	other: thrombus formation on collagen under flow, other: platelet surface coverage [3]	expression_or_secretion [4]	localisation_or_trafficking [5]	degradation_or_half_life, half_life [6]
murine VWF (mVWF): T1468A	no change	no change				
murine VWF (mVWF): S1486A/S1487A	no change	no change				
murine VWF (mVWF): T1256A	no change	no change	decreases, 6.4±1.2 vs 15.8±0.9			
murine VWF (mVWF): T1255A	no change	no change	decreases, 8.2±1.2 vs 15.8±0.9			
murine VWF (mVWF): T1477A	no change	no change				
murine VWF (mVWF): T1679A	no change	no change				
murine VWF (mVWF): T1255A/T1256A	no change	decreases, 432±55 vs 833±76	decreases, 6.0±0.9 vs 15.8±0.9	no change	no change	decreases, 3.0±0.3 vs 6.1±1
murine VWF (mVWF): T1468A/T1477A/S1486A/S1487A (cluster 2)	no change	no change				
murine VWF (mVWF): S1487A	no change	no change				
murine VWF (mVWF): T1248A/T1255A/T1256A (cluster 1)	no change	no change				
murine VWF (mVWF): T1248A	no change	no change				
murine VWF (mVWF): T2298A	no change	no change				
murine VWF (mVWF): S1486A	no change	no change	decreases, 11.6±1.0 vs 15.8±0.9			
